Laboratory results: article PMC5550728, “Retinoschisin Facilitates the Function of L-Type Voltage-Gated Calcium Channels” (Frontiers in Cellular Neuroscience, 2017)

Molecular target: T1, human full-length RS1 fused to the GAL4 DNA binding domain (pBind-RS1) (human, UniProt O15537 1-224)
T1 construct: 224 amino acids), so with its own signal peptide in the construct; source: Cos1 cells, transfected (mammalian two-hybrid fusion)
T1 sequence (looked up): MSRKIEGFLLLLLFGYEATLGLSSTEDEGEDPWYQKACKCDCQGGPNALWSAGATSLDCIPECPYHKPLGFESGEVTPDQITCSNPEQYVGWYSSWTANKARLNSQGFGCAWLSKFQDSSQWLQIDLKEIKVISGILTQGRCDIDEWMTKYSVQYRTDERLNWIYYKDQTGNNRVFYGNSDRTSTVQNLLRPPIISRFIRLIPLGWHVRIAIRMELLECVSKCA
Assay: two-hybrid; mammalian two-hybrid (luciferase reporter) in Cos1 cells: pBind-RS1 (GAL4 DNA binding domain, bait), pACT-Cav1.4-N terminal (VP16 activation domain), pG5Luc, 100 ng each; controls with empty pBind or pACT; n = 6
Conditions: partners not purified

B1: human Cav1.4 N-terminal fragment fused to the VP16 activation domain (pACT-Cav1.4-N terminal) (domain or fragment)
chain: not shown
notes: the methods give 1-1481 bp from ATG, which is about 493 codons; the exact C-terminal limit follows from the reverse primer; also called hCav1.4-N; source: Cos1 cells, transfected (mammalian two-hybrid fusion)
Q: With B1 as the binder, how does the “relative luciferase activity, fold over the controls” value read?
A: ≥ 4 fold
